Measurements from patent US20240002497A1 (Merck Sharp & Dohme, published 2024).

How the values were obtained:
rhNav1.7α + β1-β2-β3 = rhNav1.7α + β1-β2-β3 (rhesus monkey); assay: cell-based or functional assay
huNav1.7α + β1 = huNav1.7α + β1 (human); assay: cell-based or functional assay
huNav1.7α+β1 = molecular target: T1, huNav1.7α+β1 (human, UniProt Q15858 1-1988; Q07699 19-218); assay: binding FACS, HEKa/β1 cells
T1 construct: also called huNav1.7-beta1; HEKa/β1

huNav1.7α [1] = molecular target: T2, huNav1.7α (human, UniProt Q15858 1-1988); assay: binding FACS, HEKa cells
T2 construct: HEK cells expressing the α subunit alone; also called HEKa; HEK huNav1.7α

rhNav1.7α+β1-β2-β3 = molecular target: T3, rhNav1.7α+β1-β2-β3 (rhesus monkey α subunit with human β …); assay: binding FACS, CHO FlpIn cells
T3 construct: P2A cleaves it into α, β1, β2, β3; also called rhNav1.7-beta1-beta2-beta3

huNav1.7α [2] = molecular target: T2, huNav1.7α; assay: cell-based or functional assay
rhNav1.7α = rhNav1.7α (rhesus monkey, UniProt Q15858 1-1988 (human entry)); assay: cell-based or functional assay
[3] = molecular target: huNav1.7α + β1 on HEK cells (human, UniProt Q15858 1-1988; Q07699 19-218); assay: binding FACS, HEK cells (HEKa/b1)

B1: F010300990 (VHH)
VHH: EVQLVESGGGLVQPGGSLRLSCAASGPVFNINRMAWYRRAPGKQRELVAYSTPGGSTNYADSVKGRFTISRDNAKRVYLQMNSLTPEDTAVYYCNALLQPSIYDISRIYWGQGTLVTVSS
rhNav1.7α + β1-β2-β3
  Qpatch IC50: 101 nM
huNav1.7α + β1
  Qpatch IC50: 249 nM

B2: F010300684 (VHH)
VHH: EVQLVESGGGLVQPGGSLRLSCAASGPVFNWNSMAWYRRAPGKQRELVASSTPGGSTNYADSVKGRFTISRDNAKRVYLQMNSLTPEDTAVYYCRALLQPSIYDISRIYWGQGTLVTVSS
rhNav1.7α + β1-β2-β3
  Qpatch IC50: 212 nM
huNav1.7α + β1
  Qpatch IC50: 202 nM

B3: F010300477 (VHH)
VHH: EVQLVESGGGLVQPGGSLRLSCAASGSIFNINSMAWYRRAPGKQRELVASSTNGGSTNYADSVKGRFTISRDNAKRVYLQMNSLTPEDTAVYYCNWLLQPSIYDISRTYWGQGTLVTVSS
rhNav1.7α + β1-β2-β3
  Qpatch IC50: 1190 nM
huNav1.7α + β1
  Qpatch IC50: 96 nM

B4: F010301461 (VHH)
VHH: EVQLVESGGGLVQPGGSLRLSCAASGSIFNINRMAWYRRAPGKQRELVAYSTNGGDTNYADSVKGRFTISRDNAKRVYLQMNSLTPEDTAVYYCRALLQPSIYDISRTYWGQGTLVTVSS
notes: also called F0103275B05(S33R, S50Y, S56D, N93R)
huNav1.7α+β1
  EC50: 21 nM
huNav1.7α [1]
  EC50: 28 nM
rhNav1.7α+β1-β2-β3
  EC50: 24 nM

B5: F010300796 (VHH)
VHH: EVQLVESGGGLVQPGGSLRLSCAASGPVFNINRMAWYRRAPGKQRELVAYSTPGGDTNYADSVKGRFTISRDNAKRVYLQMNSLTPEDTAVYYCNALLQPSIYDISRTYWGQGTLVTVSS
notes: vs F0103275B05: S27P, I28V, S33R, S50Y, N53P, S56D
huNav1.7α+β1
  EC50: 38 nM
huNav1.7α [1]
  EC50: 5.8 nM
rhNav1.7α+β1-β2-β3
  EC50: 44 nM

B6: F010301459 (VHH)
VHH: EVQLVESGGGLVQPGGSLRLSCAASGPVFNINRMAWYRRAPGKQRELVASSTPGGDTNYADSVKGRFTISRDNAKRVYLQMNSLTPEDTAVYYCRALLQPSIYDISRTYWGQGTLVTVSS
notes: vs F0103275B05: S27P, I28V, S33R, N53P, S56D, N93R
huNav1.7α+β1
  EC50: 18 nM
huNav1.7α [1]
  EC50: 22 nM
rhNav1.7α+β1-β2-β3
  EC50: 23 nM

B7: F010301462 (VHH)
VHH: EVQLVESGGGLVQPGGSLRLSCAASGPVFNINRMAWYRRAPGKQRELVAYSTPGGDTNYADSVKGRFTISRDNAKRVYLQMNSLTPEDTAVYYCRALLQPSIYDISRTYWGQGTLVTVSS
notes: vs F0103275B05: S27P, I28V, S33R, S50Y, N53P, S56D, N93R
huNav1.7α+β1
  EC50: 22 nM
huNav1.7α [1]
  EC50: 35 nM
rhNav1.7α+β1-β2-β3
  EC50: 23 nM

B8: F010301460 (VHH)
VHH: EVQLVESGGGLVQPGGSLRLSCAASGPVFNINRMAWYRRAPGKQRELVAYSTPGGSTNYADSVKGRFTISRDNAKRVYLQMNSLTPEDTAVYYCRALLQPSIYDISRTYWGQGTLVTVSS
notes: vs F0103275B05: S27P, I28V, S33R, S50Y, N53P, N93R
huNav1.7α+β1
  EC50: 26 nM
huNav1.7α [1]
  EC50: 15 nM
rhNav1.7α+β1-β2-β3
  EC50: 32 nM

B9: F010301000 (VHH)
VHH: EVQLVESGGGLVQPGGSLRLSCAASGPVFNINRMAWYRRAPGKQRELVAYSTPGGDTNYADSVKGRFTISRDNAKRVYLQMNSLTPEDTAVYYCNALLQPSIYDISRIYWGQGTLVTVSS
notes: vs F0103275B05: S27P, I28V, S33R, S50Y, N53P, S56D, T101I
huNav1.7α+β1
  EC50: 60 nM
huNav1.7α [1]
  EC50: 8.5 nM
rhNav1.7α+β1-β2-β3
  EC50: 40 nM

B10: F010300468 (VHH)
VHH: EVQLVESGGGLVQPGGSLRLSCAASGSIFNINSMAWYRRAPGKQRELVASSTNGGSTNYADSVKGRFTISRDNAKRVYLQMNSLTPEDTAVYYCRALLQPSIYDISRTYWGQGTLVTVSS
notes: vs F0103275B05: N93R; also called F0103275B05(N93R)+FLAG3-HIS6; F103275B05(N93R)
huNav1.7α [2]
  2-pulse IC50 [M], P1: 5e-06 M
  2-pulse IC50 [M], P2: 4e-06 M
rhNav1.7α
  2-pulse IC50 [M], P1: 6e-06 M
  2-pulse IC50 [M], P2: 3e-06 M
rhNav1.7α+β1-β2-β3
  EC50: 40 nM

B11: F010301639 (VHH)
VHH: EVQLVESGGGVVQPGGSLRLSCAASGSIFNINSMAWYRQAPGKQRELVASSTNGGSTNYADSVKGRFTISRDNAKRTVYLQMNSLRPEDTALYYCNALLQPSIYDISRTYWGQGTLVTVSS
notes: also called F0103275B05(R76_V78insT)(L11V, R39Q, T83R, V89L)
[3]
  EC50: 94 nM

B12: F010301640 (VHH)
VHH: EVQLVESGGGVVQPGGSLRLSCAASGSIFNINSMAWYRRAPGKQRELVASSTNGGSTNYADSVKGRFTISRDNAKRTVYLQMNSLRPEDTALYYCNALLQPSIYDISRTYWGQGTLVTVSS
notes: also called F0103275B05(R76_V78insT)(L11V, T83R, V89L)
[3]
  EC50: 65 nM
